Experimental findings from article PMC4137706 (Molecular Biology and Evolution, 2014) are described below.

Experiment [1] addresses Full-length S. rosetta Flotillin 1 N-terminally tagged with GST (GST-SrFlotillin 1) (S. rosetta). Nature of the experiment: […].
Experiment [2] addresses T1, Full-length human Flotillin 1 N-terminally tagged with GST (GST-HsFlotillin 1) (human, UniProt O75955 1-427).
T1 sequence: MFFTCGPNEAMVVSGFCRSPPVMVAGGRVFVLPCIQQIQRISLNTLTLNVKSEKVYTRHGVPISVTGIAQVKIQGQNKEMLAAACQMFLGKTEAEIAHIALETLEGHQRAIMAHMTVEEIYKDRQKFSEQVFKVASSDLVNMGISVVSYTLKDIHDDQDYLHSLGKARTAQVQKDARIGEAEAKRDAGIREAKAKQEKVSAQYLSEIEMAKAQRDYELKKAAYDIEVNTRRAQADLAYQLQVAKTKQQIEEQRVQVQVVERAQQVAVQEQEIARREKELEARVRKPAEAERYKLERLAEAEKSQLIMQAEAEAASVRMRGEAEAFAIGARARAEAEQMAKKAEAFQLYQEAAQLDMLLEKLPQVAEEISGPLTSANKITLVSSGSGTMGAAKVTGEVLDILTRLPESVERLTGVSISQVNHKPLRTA
Nature of the experiment: pull-down.

As a reminder, the Kd is the constant that tells how readily two partners part at equilibrium. Low readings indicate higher affinity, high ones lower affinity.

For the molecule “Full-length Salpingoeca rosetta Homer, N-terminally hexahistidine-tagged (His-SrHomer) (natural protein)”, in experiment [1], the Kd is 960 nM.

B1: Full-length human Homer 1, N-terminally hexahistidine-tagged (His-HsHomer 1) (natural protein)
chain: MGEQPIFSTRAHVFQIDPNTKKNWVPTSKHAVTVSYFYDSTRNVYRIISLDGSKAIINSTITPNMTFTKTSQKFGQWADSRANTVYGLGFSSEHHLSKFAEKFQEFKEAARLAKEKSQEKMELTSTPSQESAGGDLQSPLTPESINGTDDERTPDVTQNSEPRAEPTQNALPFSHSSAISKHWEAELATLKGNNAKLTAALLESTANVKQWKQQLAAYQEEAERLHKRVTELECVSSQANAVHTHKTELNQTIQELEETLKLKEEEIERLKQEIDNARELQEQRDSLTQKLQEVEIRNKDLEGQLSDLEQRLEKSQNEQEAFRNNLKTLLEILDGKIFELTELRDNLAKLLECS
B1 had a Kd in experiment [2] of around 830 nM.
